Residue numbers refer to the chain shown, from its start. Several values for one entry are separate records, joined by “and”; a condition that tells them apart may be missing. Equal values may be shown once. Read-outs that look alike come from different tables or passages of the source.
T1: human OX40 expressed on cells (human, UniProt P43489 29-277)
T1 sequence: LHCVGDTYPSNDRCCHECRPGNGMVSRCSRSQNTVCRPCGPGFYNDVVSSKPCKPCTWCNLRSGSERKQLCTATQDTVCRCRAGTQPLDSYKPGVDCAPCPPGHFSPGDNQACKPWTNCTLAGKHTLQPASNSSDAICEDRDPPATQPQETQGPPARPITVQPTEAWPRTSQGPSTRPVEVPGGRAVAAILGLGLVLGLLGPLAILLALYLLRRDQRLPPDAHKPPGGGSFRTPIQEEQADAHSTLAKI

T2: recombinant soluble human OX40 ECD (residues 1-216) (human, UniProt P43489 29-216)
T2 construct: Purchased from Creative Biomart and further purified by gel filtration; also called recombinant extracellular domain of human OX40
T2 sequence: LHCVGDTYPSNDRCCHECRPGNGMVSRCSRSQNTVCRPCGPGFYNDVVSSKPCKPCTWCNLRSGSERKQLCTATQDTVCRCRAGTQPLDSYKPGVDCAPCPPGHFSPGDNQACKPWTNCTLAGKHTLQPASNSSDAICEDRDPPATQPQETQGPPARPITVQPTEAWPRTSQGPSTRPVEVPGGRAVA

B1: 119-122 (antibody, human IgG1, V domains shown)
VH: EVQLVESGGGLVQPGGSLRLSCAASEYEFPSHDMSWVRQAPGKGLELVAAINSDGGSTYYPDTMERRFTISRDNAKNSLYLQMNSLRAEDTAVYYCARHYDDYYAWFAYWGQGTMVTVSS
VL: EIVLTQSPATLSLSPGERATLSCRASKSVSTSGYSYMHWYQQKPGQAPRLLIYLASNLESGVPARFSGSGSGTDFTLTISSLEPEDFAVYYCQHSRELPLTFGGGTKVEIK
B2: 1A7 (antibody, human IgG1, V domains shown)
VH: EVQLQQSGPELVKPGASVKISCKASGYTFTDSYMSWVKQSHGKTLEWIGDMYPDNGDSSYNQKFREKVTLTVDKSSTTAYMEFRSLTSEDSAVYYCVLAPRWYFSVWGTGTTVTVSS
VL: DIQMTQTTSSLSASLGDRVTISCRASQDISNYLNWYQQKPDGTVKLLIYYTSRLRSGVPSRFSGSGSGKDYFLTISNLEQEDVAAYFCQQGHTLPPTFGGGTKLEIK
notes: 2015/0307617; also called literature anti-OX40 antibody 1A7
B3: 18D8 (antibody, human IgG1, V domains shown)
VH: EVQLVESGGGLVQPGRLSRLSCAASGFTFDDYAMHWVRQAPGKGLEWVSGISWNSGSIGYADSVKGRFTISRENAKNSLYLQMNSLRAEDTALYYCAKDQSTADYYFYYGMDVWGQGTTVTVSS
VL: EIVVTQSPATLSLSPGERATLSCRASQSVSSYLAWYQQKPGQAPRLLIYDASNRATGIPARFSGSGSGTDFTLTISSLEPEDFAVYYCQQRSNWPTFGQGTKVEIK
notes: also called literature anti-OX40 antibody 18D8
B4: 106-222 (antibody, human IgG1, V domains shown)
VH: QVQLVQSGSELKKPGASVKVSCKASGYTFTDYSMHWVRQAPGQGLKWMGWINTETGEPTYADDFKGRFVFSLDTSVSTAYLQISSLKAEDTAVYYCANPYYDYVSYYAMDYWGQGTTVTVSS
VL: DIQMTQSPSSLSASVGDRVTITCKASQDVSTAVAWYQQKPGKAPKLLIYSASYLYTGVPSRFSGSGSGTDFTFTISSLQPEDIATYYCQQHYSTPRTFGQGTKLEIK
notes: 2013/0280275
B5: Hu3739 (antibody, V domains shown)
VH: EVQLVQSGAEVKKPGSSVKVSCKASGFNIKDTYMHWVRQAPGQGLEWIGRIDPANGNTKYDPKFQGRATITADTSTNTAYMELSSLRSEDTAVYYCARGGPAWFVYWGQGTLVTVSS
VL: DIQMTQSPSSLSASVGDRVTITCRASQDISNYLNWYQQKPGKAPKLLIYYTSRLRSGLPSRFSGSGSGTDYTLTISSLQPEDFATYYCQQGNTLPWTFGGGTKVEIKR
notes: Humanized antibody; also called Hu3739 VH.1b / Hu3739 VL.1b
B6: Hu3741 (antibody, V domains shown)
VH: EVQLVESGGGLVQPGGSLRLSCAVSGFSLTSYGVHWVRQAPGKGLEWLGVIWSGGSTDYNAAFISRLTISKDNSKSTVYLQMNSLRAEDTAVYYCAREEFDYWGQGTTVTVSS
VL: B5 VL with Y36F, R55H, L58V, N92Y, W96P
notes: Humanized antibody; also called Hu3741 VH.2b / Hu3741 VL.1c
B7: soluble human OX40 ligand (OX40L) (ligand)
chain: QVSHRYPRIQSIKVQFTEYKKEKGFILTSQKEDEIMKVQNNSVIINCDGFYLISLKGYFSQEVNISLHYQKDEEPLFQLKKVRSVNSLMVASLTYKDKVYLNVTTDNTSLDDFHVNGGELILIHQNPGEFCVL
notes: also called CD252; TNFSF4

Assays:
[1] = target: T1, human OX40 expressed on cells; experiment: cell-based or functional assay
[2] = target: T1, human OX40 expressed on cells; experiment: cell-based or functional assay; remark: listed apart in the source
[3] = target: T1, human OX40 expressed on cells; experiment: cell-based or functional assay; remark: listed apart in the source
[4] = target: T1, human OX40 expressed on cells; experiment: competition by flow cytometry on Jurkat-NF-κB-huOX40 cells; competitor: ALEXA FLUOR 647-labeled Hu3738 at 2 µg/mL
Method: Analysis was performed by flow cytometry.

[5] = target: T1, human OX40 expressed on cells; experiment: flow cytometry on Jurkat NF-κB reporter cells expressing human OX40
Method: A Jurkat NF-κB reporter cell line expressing human OX40 protein was cultured in DMEM containing 10% FBS and penicillin/streptomycin (pen/strep). For the binding assay, each cell line was resuspended at 5 million cells per mL. 50 μL (250,000 cells)/well were transferred to each well of a 500 μL polypropylene 96-well plate (Nunc). A 2× stock of test anti-OX40 antibody or isotype control mAb was prepared in a separate dilution plate at 666, 333, 111, 37.03, 12.34, 4.11, 0.457, 0.152, 0.0508, 0.0169, 0.00564 nM in culture media. Each antibody (50 μL/well) was transferred into respective wells of the assay plate. Cells were incubated with the test anti-OX40 antibody or isotype control antibodies for 30 minutes at 4° C. and washed twice with 250 μL/well of PBS by centrifuging at 800 rpm for 3 minutes. Bound antibody was detected with Cy5-Donkey anti-human IgG (H+L) (Jackson ImmunoResearch) diluted to 2 μg/mL (50 μL/well) in PBS for 30 minutes at 4° C. Cells were washed once with 250 μL/well of PBS, resuspended in PBS containing 1% Formaldehyde and analyzed on a dual laser FACSCalibur (Becton Dickinson).

[6] = target: T2, recombinant soluble human OX40 ECD …; experiment: SPR (Biacore T200, 25 °C), antibody captured by anti-Fc, OX40 ECD as analyte
Method: The binding kinetics of an anti-OX40 antibody to recombinant soluble OX40 ECD (extracellular domain) were determined by surface plasmon resonance-based measurements made on a Biacore T200 instrument (GE Healthcare) at 25° C. using an anti-Fc capture assay approach. Recombinant extracellular domains (ECDs) of human OX40 (residues 1-216) and rhesus macaque OX40 (residues 28-214) were purchased (Creative Biomart) and further purified by gel filtration using Superdex200 (GE Healthcare) in 10 mM 4-(2-hydroxyethyl)-1-piperazineethanesulfonic acid (HEPES), pH 7.4, 150 mM NaCl, 3 mM ethylenediaminetetraacetic acid (EDTA). Rhesus macaque (Macaca mulatta) OX40 is identical to cynomolgus monkey (Macaca fascicularis) OX40 (SEQ ID NO:2) at the amino acid level. Chip preparation and binding kinetic measurements were made in the assay buffer HBS-EP+(10 mM HEPES, pH 7.4, 150 mM NaCl, 3 mM EDTA, 0.05% Tween 20). For anti-Fc capture chip preparation, approximately 2000 Resonance Units (RU) of goat anti-human IgG Fc polyclonal antibody (Thermo Fisher Scientific Inc.), diluted to 25 μg/mL in 10 mM sodium acetate (pH 4.5), was directly immobilized across a CMS biosensor chip using a standard amine coupling kit according to manufacturer's instructions and procedures. Unreacted moieties on the biosensor surface were blocked with ethanolamine. For binding kinetics measurements each assay cycle consisted of the following steps: 1) capture of test anti-OX40 antibody on test surface only; 2) analyte injection (OX40 ECD or buffer only) over both reference and test surface, 240 μL at 80 μL/min, after which the dissociation was monitored for 900 seconds at 80 μL/min; 3) regeneration of capture surface by 10 mM Glycine-HCl, pH 1.5 injections over both reference and test surface. During the assay, all measurements were referenced against the capture surface alone (i.e., with no captured test antibody) and buffer-only injections were used for double referencing. OX40 injections ranged in concentration from 900 nM or 300 nM to 11.11 nM in a randomized 9- or 3-fold dilution series, respectively. Data were processed and fitted globally to a 1:1 binding model using Biacore T200 Evaluation software to determine the binding kinetic rate constants, kₐ (M⁻¹s⁻¹) and kd (s¹), and the equilibrium dissociation constant KD (M).

[7] = target: T1, human OX40 expressed on cells; experiment: flow cytometry competition on human OX40-expressing Jurkat cells; OX40L titrated against 0.2 µg/mL Hu3738 (competitor)

Row | Molecule | EC50 With Cross-linker (nM), NF-κB signaling [2] | EC50 Without Cross-linker (nM), NF-κB signaling [2] | Kd [6] | koff [6] | also measured
1 | Isotype control antibody |  |  |  |  | EC50 With Cross-linker (nM), NF-κB signaling [1]: > 100 µg/mL; EC50 Without Cross-linker (nM), NF-κB signaling [1]: > 100 µg/mL
2 | B1 | 0.34 nM | > 100 µg/mL |  |  | 
3 | B2 |  |  |  |  | EC50 With Cross-linker (nM), NF-κB signaling [3]: 0.066 nM; EC50 Without Cross-linker (nM), NF-κB signaling [3]: > 100 µg/mL; IC50 (read off the curve) [4]: ~0.6 µg/mL
4 | B3 | 0.5 nM | > 100 µg/mL | 9.1 nM | 0.11 s⁻¹ | EC50 [5]: 0.258 µg/mL
5 | B4 | 0.63 nM | > 100 µg/mL |  |  | IC50 (read off the curve) [4]: ~1 µg/mL
6 | B5 |  |  | 360 nM | 0.016 s⁻¹ | 
7 | B6 |  |  | 3000 nM | 0.31 s⁻¹ | 
8 | B7 |  |  |  |  | IC50 [7]: 0.067 nM and 0.01 µg/mL
